Results reported in PMC4305340.
Like-named read-outs stand apart in the source and are kept apart here.

Key:
Assay in all cases: fluorescence polarization
PrfA(C/A)4 = PrfA(C/A)4 (Listeria monocytogenes, UniProt P22262 1-237, C38A;C144A;C205A;C229A)
PrfA wild type [1] = target: T1, PrfA wild type (Listeria monocytogenes, UniProt P22262 1-237)
PrfA wild type [2] = target: T1, PrfA wild type; remark: listed apart in the source

B1: Phly PrfA box (dsDNA)
DNA 1: TGAGGCATTAACATTTGTTAACGACGAT
DNA 2: ATCGTCGTTAACAAATGTTAATGCCTCA
In the case of B1, the Kd (PrfA(C/A)4) is reported as 32.8 nM and the Kd (PrfA wild type [1]) is reported as 34.2 nM.

B2: PactA PrfA box (dsDNA)
DNA 1: AACTGATTAACAAATGTTAGAGAAAACT
DNA 2: AGTTTTCTCTAACATTTGTTAATCAGTT
Work on B2 yielded a Kd (PrfA(C/A)4) of 125 nM and a Kd (PrfA wild type [2]) of 96.4 nM.
